From the RNAGym collection of RNA variant scans (doi:10.1073/pnas.2313332121)
Fewer inactive variants are shown than the library holds.

B1: TPR 5TU (parent)
chain: GGAUCUUCUCGAUCUAACAAAAAAGACAAAUCUGCCACAAAGCUUGAGAGCAUCUUCGGAUGCAGAGGCGGCAGCCUUCGGUGGCGCGAUAGCGCCAACGUUCUCAACUAUGACACGCAAAACGCGUGCUCCGUUGAAUGGAGUUUAUCAUG

Variants of: B1
Assay: polymerase ribozyme fitness, log enrichment relative to wild type (log ratio); higher = more active; in vitro selection for triplet polymerase activity
Procedure, shortened: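 To select mutant libraries of each subunit of a heterodimeric triplet polymerase ribozyme, built by PCR and transcribed, each was annealed with a biotinylated primer, partner subunit and triplets, then incubated frozen at −7 °C. Extended constructs were gel-excised, captured on streptavidin beads and amplified by RT-PCR, in one round carried out in triplicate. Illumina sequencing of input and output libraries kept genotypes with ≥10 input reads and ≥1 read per output. Fitness is the base-2 logarithm of genotype enrichment relative to wild-type enrichment, from inverse-variance-weighted replicate averages.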

Variant	polymerase ribozyme fitness (log ratio)
U6G A52C	-0.94
U6A A26C A122C	-2.04
U6A C69G G84U U145C	-1.67
U6G A20U A41U U44A U55G G83A G88U A98U A121G U145A	≤ -4.2
C5G G65A A66G A137C G141C	≤ -4.2
U6A G25U	-1.78
C5G G83A	-1.24
U6G A19U G50C G88U C99G	≤ -4.2
U6G A29U A73G U77C C95U A107U	≤ -4.2
C5U A52C C76U C93A C116U C123G	-3.61
U6G C8G A47C G59U A91C C96G C132G G133A	≤ -4.2
U6A C18G U56A A106G	-0.358
U6A	0.197
U6C	-0.0891
U6G	0.0167
U6C C54G C93A C116G G141A	-4.17
U6A G11A U45A U53G C76U U90G C118U	≤ -4.2
C5U A19G A23G G58U G81A G94C C116A C129U U135C U146G	≤ -4.2
C5U A29U G62A G67C A142U	≤ -4.2
C5G G46U G81U C87U G88A A98U C125U	≤ -4.2
C5U U15A A17G C18U G42A U53A U55A A60C G68C C79U A91C A97G	≤ -4.2
U6G A41C A49G C95G	-2.03
U6G C10G A21G G71A C76U C85A	≤ -4.2
U6G A12U A28C A40C G94C	≤ -4.2

Variant	polymerase ribozyme fitness (log ratio)
C5U U13G A20C C27G G80A C87U U148G	≤ -4.2
C5U A24C C79A G84A U104A A142G	≤ -4.2
U6C C54U C76U	-2.15
U6G A28U	-3.76
U6A A23C G68U G100U C131U G143U	≤ -4.2
U6C A21U U55A G58A G86A	-3.18
U6C A41G U56G G59A U61G C76A A91C C95G G124A	≤ -4.2
C5G G48C G62C A97U G141U	≤ -4.2
C5U U7A G88U U148C A150C	≤ -4.2
C5G U78C G84A G136U	-3.39
U6C U7G A49G A66C G74A C96G	≤ -4.2
C5U A12U C18G G70C G80A C93G C95U A98G U144G	≤ -4.2
C5G U53G C54A C96U U135A	-3.79
U6A C85U	-0.519
C5U A37U C69U C95U	-1.02
U6C C63U A138G	-4.08
U6A A24U G81U C85G G140U	≤ -4.2
U6A U56A	-0.431
C5U A19G U77A C95U	≤ -4.2
U6G A19G A30U A119G	≤ -4.2
U6C U61A G68C G84A G88U A121G G124A	≤ -4.2
C5U G84A	0.439
U6G A41U U45C	-2.17
U6C A24U A40C U56A A73U C76G C129U	≤ -4.2

Variant	polymerase ribozyme fitness (log ratio)
C5U A17C G50A U77A C87G A91C A106U U109G	≤ -4.2
U6G A47C C87A	≤ -4.2
C5G U7G A12C A22U U90C U144A	≤ -4.2
U6A C8A A19U A20U C72U U77A U101A	≤ -4.2
C5U A28U A40U C57U G83C A89G	≤ -4.2
U6A A16C U56A U61A C95U C114U	-3.64
U6G A26G A29C A47U C63U G84A G136U G143C U151A	≤ -4.2
C5U A40G G84A A97G	-3.39
C5U C75A	-4.03
U6C C8U U15G	-2.42
C5G G94C U101G	-2.68
U6G C10G C14A A49C C85A C93U C116U	≤ -4.2
U6A G11A A64C C72U C87U A120G C149A	≤ -4.2
U6C U56C A89C A121U	-2.59
C5U U55A	0.322
U6C A89G C96U U135C G140U	≤ -4.2
C5U C96U	0.36
U6G A49C C51U G88A A107U A142G	≤ -4.2
U6G A24U A119U G136U	-3.74
U6C C8A U111G G143C	≤ -4.2
U6G A122C	-0.304
C5G G92A C96A	-3.11
C5U G11A A29U G70C G84A C96U	≤ -4.2
C5G U13C C18U G46U C108U A122G	≤ -4.2

Variant	polymerase ribozyme fitness (log ratio)
U6C U13G C43G C76U U90A U151G	≤ -4.2
U6A C8A A12G C43U A64C G86C C87A	≤ -4.2
U6A C14A C32U G74A A138C	≤ -4.2
C5U C38U C63A U77A C95U U127G G136U U144C	≤ -4.2
U6G A37C C51G G74C A98U C103A C118A G128U U135C U146C G152A	≤ -4.2
C5G U55A C93U C118A	-3.5
U6A C38U U44A U82G C85U C95A U101G	≤ -4.2
U6C C10U A20C A122C	≤ -4.2
C5U U45G A119U	-0.808
C5U C54U U82A C95G A150U	-1.62
U6C A47C C85A	-3.96
C5U U13A A23G C36U G46A A97U C103U	≤ -4.2
U6C A19C A26G C85G C108A	≤ -4.2
C5G U6G U7G C14G A28C A30C G50C C51G A89G C93G G94U C105U C118A G133A	≤ -4.2
C5U U13C C95U U146G	-1.13
U6A A26C A98U G136U	-4.09
C5U U15G A39C A66U C95U	-4.2
C5G U53A G94A C125A U139C A142C	≤ -4.2
U6A C57G C105U	0.464
C5G U6C G50A	-2.74
U6A C93A	-2.58
U6C C32A A49U G70U U82G C87U C105G	≤ -4.2
C5U A49C G81U C93G	≤ -4.2
C5U G92A	-1.32

Variant	polymerase ribozyme fitness (log ratio)
C5U G92A C114U	-3.86
C5U C8U A23C C85U C103A C116U	≤ -4.2
C5G U7A U56A A91C A106G C125A G136A U145A	≤ -4.2
C5G G84A	-0.0388
C5G U9G G86A	-4
C5U G25C G42U U61A A107U G133U A142C U148A	≤ -4.2
U6G A22U C85A	-0.601
U6C U31C C57A C96G	-1.1
U6A U56A U82G C103U	-1.06
U6C G48A A106G	-3.13
C5U C87U	0.457
U6C U61A C85U A97C A120G	-3.12
U6G A39C C85A A98G G126C	-3.91
U6C C10A A24U A110G	≤ -4.2
C5G U9C A97G G141C	-3.27
U6C U9A A30U A49U C85U U146C	≤ -4.2
U6C A49G G59A G92A U111A	≤ -4.2
U6G A12U A22U A64U G88C C95U	≤ -4.2
C5G G71U	-3.09
C5G U6A C32G U77A C87G C114U	≤ -4.2
C5G U82A C95U	-0.788
C5U U13A C14A U53A U55A C76A A120U G124C	≤ -4.2
U6G A28U C72U C87A	≤ -4.2
U6A U61A C93A	≤ -4.2

Variant	polymerase ribozyme fitness (log ratio)
U6G C8A G48A U56G C75U G80C G83U G92U C93A C99U G100U	≤ -4.2
C5G U55A	-0.729
U6G A73C C99U	≤ -4.2
C5G G50C	-3.2
C5U C87U G94C	-2.15
U6C A23G A91U A106G	≤ -4.2
C5U C51A C54G G59C G84A C116G	-3.05
U6C C93G	-3.54
C5G U55G G83U U101C	-2.49
U6C A24C G86U U104G C125U	≤ -4.2
C5U A16U A26U U44A A52G G92C	≤ -4.2
C5U U56A C75U G83C	-0.766
U6C A16G A24U C96A C118U	-3.92
U6C A60U G86A	-3.49
U6C A17U A64U A73U C85G U127A U130G A142G	≤ -4.2
U6A G11U A23C G25A C36A G50C C125U	≤ -4.2
C5U G50C C87U C103G A121G C123U C125G	≤ -4.2
U6G A12U A28C G65U U127G	≤ -4.2
C5G U15G A52G	-1.06
U6A U7G C36U C85A U144A	≤ -4.2
U6C C129G	-3.13
U6A A12U U53A C114U	-3.59
U6C U61A A73C C85G	≤ -4.2
U6C C38A G59U C69A	-2.2

Variant	polymerase ribozyme fitness (log ratio)
C5G U53G C57A G80C A91U U144C	≤ -4.2
C5U G74A A91U C93G	≤ -4.2
U6A C57G A64G C76U C87A	≤ -4.2
C5G G50C C85U	-3.69
C5U A73U G83A	-0.929
C5U U13A C57G G141U	-1.34
U6A A12C C87G A89U	-3.27
U6A U90G C95U U109G A137C	≤ -4.2
C5G U31A C54U G67C A110U A121G	≤ -4.2
C5U	0.998
U6A C27A C85G	≤ -4.2
U6A C87A A137C	≤ -4.2
C5G U33C G50C C57U G71A A73U A91U	≤ -4.2
C5U U13C C85U U101G C105A U109G A110G	≤ -4.2
U6G A21U A26G A40C A66G A107U U135A G141A	≤ -4.2
C5G U82G G86U A121G	-2.13
U6G A41C G42A U56C C85A C99A	≤ -4.2
C5U U45A G50U G86C C96U	≤ -4.2
U6C U33G U56C G81C C95U	≤ -4.2
C5U C8U G58A A73G C114U A120G	-3.02
U6C U82A C99U G136U	-3.43
C5U A40C C54G G92A A121U C132U U146A	≤ -4.2
C5U C51A G58A G81C	-1.81
